Measured values from the DeepSol protein solubility set.

Experiment: soluble on expression in E. coli; label from the status in PepcDB or PDB records

Sequence | soluble on expression in E. coli
MGSDKIHHHHHHMTYYESGLLRARWASWQDARAGRTAQANARWGWIKAPGERGPILWMQSFSDADQQRLGIELAKAMAEKRRDLRMVMTFETEYPALLEQHTEGAERLGYGFGPCDHPQAVGRMLERLTPLRYLALGRAPRPRLAAALGRRKIPAVLMAADPGLQIPAPLEAVYPRDARQAGAWAGRGVTEAVQEPVDFATLFTIAQVDPNFRAMISGTDEGLLWWAQGLSAAQWAGWRRAWAASPLSRHGLLFLGGTGAPTDLPRLSAWQRAPLPAGAVVVADDDRWYPALSAGAQAVHLQKASPMLQWQVYAGSRPISVSPGVTLNAAEPLDADTILTLEEPAQILDHWQALRGDAMAARQRGDATRRIFWQERRHAGERLPEFLQRVFDW | not soluble
MGSDKIHHHHHHMVAQIQELDALHWVKTRSSLDPNQSTFLTWTGKIYAFIPGEKRKLLFKMVGVSVSRCLPTDEGNWDFTSRELTYYLNPENDEILRKWENPWTGETVPVLHVANNPVQGHFQGKFPAQVEGETTTFVFDIFPTYPNPLAEETQFAEYSPYPTYQAAELFKLTVPTADLFNAELPAVSQLRLSWDRIGQWLPWMKMGDRPGNLIYSAFGSKVNGLTELPHILQEEINTRVPLYKQAPKTFSDGEDMTSWLYFQKHFQAYLAGDIFPLPADEEV | not soluble
MGSDKIHHHHHHMVAYGELIREVRLSKGLTQKEVYTGVISKSYAIGFEKGKHDITLVLFEEILERVMLSSDEFFFMNRGYSLAEEDNFWYKFANAANQKSLADLQELYQEVLQQTGDRANLRKAIVHSRMEINEQFLLNNRFDVSIVSEKDKAVIQTYLWKVQSWTLEEIRIFANSVDYFEEDVQIYFFQLVLKSLEKYKHYDRGKKVFSTLLSNIIEELITRNQLEYAAQLLEILHELSSTHDCAFYRIMHNYYQGLIWMKNDQVEQGLKESKSAIRILDVLDYKSLAQLYNTLLQQFLEKENIQIV | not soluble
MGSDKIHHHHHHMVEIKKICCIGAGYVGGPTCSVIAHMCPEIRVTVVDVNEARINAWNSPTLPIYEPGLKEVVESCRGKNLFFSTNIDDAIREADLVFISVNTPTKTYGMGKGRAADLKYIEACARRIVQNSNGYKIVTEKSTVPVRAAESIRRIFDANTKPNLNLQVLSNPEFLAEGTAIKDLKNPDRVLIGGDETPEGQKAVRALCAVYEHWVPKEKILTTNTWSSELSKLAANAFLAQRISSINSISALCEATGADVEEVATAIGMDQRIGNKFLKASVGFGGSCFQKDVLNLVYLCEALNLPEVARYWQQVIDMNDYQRRRFASRIIDSLFNTVTDKKIAILGFAFKKDTGDTRESSSIYISKYLMDEGAHLHIYDPKVPREQIVVDLSHPGVSADDQVSRLVTISKDPYEACDGAHALVICTEWDMFKELDYERIHKKMLKPAFIFDGRRVLDGLHSELQTIGFQIETIGKKVSSKRIPYTPGEIPKFSLQDPPNKKPKV | not soluble
MGSDKIHHHHHHMVEPMTPRFKYTKASQENIQQLGNILEQCFVMSFGDSEIYVKGIGLENFRVIYREQKVAGGLAILPMGQWWGGQRVPMAGIAAVGIAPEYRGDGAAIALIQHTLQEISEQDIPISVLYPATQRLYRKAGYEQAGSSCVWEIPTDSIQIQHASLPLEPVVLKNNPIFHELYQQQAQLTHGYLDRHPAIWQGLNRTLDTETLYSYLIGDKDKPQGYIIFTQERTRDGSILRIRDWVTLSNPAVQSFWTFIANHRSQIDKVTWKSSVIDALTLLLPEQSATIRSQDRWMLRIVNVCKALEARGYPLGVEAELHLEVQDDLLATNQGKFILSVANGKSEVTKGGKGELQLDIKGLASLYTSLFTPRQLQLTGKLQATETALLKATQIFAGESPWMIDFF | not soluble
MGSDKIHHHHHHMVGIGFRKDFAAKFLNTTDLQPDFIEVAPENWIGIGGLWKKRLQQALEKYPLYTHGLSLSIGSPDALDFDLLKGVKKFLAETGAKVYSEHLSYSKCDNAHLYDLLPIPFTHDAVKHIAKRIQTIQDFLERRLAIEIVSYYSPVAAEMSELEFVNAILQESDCDLLLDVNNIYVNGFNHNYDPYAFINQLPLERVAYIHIAGHDQVSETLIIDTHGEAIVDPVYYLYQYTMNQLQRDVPTLLERDFNIPQLSELQGEIDRLKKIKADCLTKELYGIQR | not soluble
MGSDKIHHHHHHMVIFTQVVECGSFSGAAIATGHSNSYISKTLNKLEARVGVRLLNRTTRSISLTPEGQVYYEQCQQLVLDAHDAVSLLTQSHIEPKGVLKISCPTSFAENHLQEVMSAFMHQYPEVNLVLDLNDRHVDLVQDGFDLVIRATDKLAESSLVCRKIYSCKAYTVASHDYLKRFGLPQSPEQLSEHQCICYSNLKQANKWIYSHSNGTDNQVEVKAKLLCNSASMELAMVLAGHGICRLPAFVMEKELQDNKLAILFNDYITPTIDVYAIYPSRKHLSPKVRCFIDLLVDKMPRSLL | not soluble
MGSDKIHHHHHHMVIQMKFFNREKEIHEILSILEGEPNIIYFIYGPLNSGKTALIKHIIENKLSDDYKVFYINFRTYLISEKREFIEAIFTTKKDDFFEKIKDKSEVLNLITKGAKILTGIPIPEVEFDKLFEEKINDAFQYLNSILLEVKKSGKQPVLILDELQMIKDVVLNWQKYLLKELFQFLVSLTKEQHLCHVFCLSSDSLFIEYVYSAGELEGRAKYLLVDDFDKETALKFMDFLAKEILNKKLSDEDKELIYNYVGGKPVYIYSVIDEMRYRKLEDILNLMLKEETQKLKYFLKELDYIKPKVELKDEIIEIKKDDIINALKLFKENYEVSDDDIPEPVYIYLVKKNILFLNPIEGILKPQSFLIWNAIKKLLNGH | not soluble
MGSDKIHHHHHHMVKVVKFGGSSLASAEQFTKVGDIIRSDESRKYVVPSAPGKRNSKDTKVTDMLYACYDLAENDQDFKVMLRKIKDRYDSIINGLHLKLALDEEFKIIAENFKAKAGADYAASRGEYLNGIIMANYLGYEFIDSATVIFFDENGNFDAEKTDKVLSKKLEQTEKAVIPGFYGAGPDGKVVTFSRGGSDITGSIVSKACHASMYENWTDVSGCLVADPRIIDNPQPIKVVTYRELRELSYMGASVLHEDAVFPVRKAGIPINIRNTNDPEAPGTLIVESTCQKPDYTITGIAGKKGFVAVNIDKDKMNSEVGFCRKALQAFEENGISIEHMPSGIDTMTVFVHQAEFEGKEQQVISSIRRLAHPDIIDLESDLALIAVVGRGMKSNRGTAGRIFSALAHANINVRMIDQGSSELNIIIGVSNDDFDKAIKAIYDIFVVTQL | not soluble
MGSDKIHHHHHHMVQAWYMDESTADPRKPHRAQPDRPVSLEQLRTLGVLYWKLDADKYENDPELEKIRKMRNYSWMDIITICKDTLPNYEEKIKMFFEEHLHLDEEIRYILEGSGYFDVRDKEDKWIRISMEKGDMITLPAGIYHRFTLDEKNYVKAMRLFVGEPVWTPYNRPADHFDARVQYMSFLEGTA | soluble
MGSDKIHHHHHHMVRLRPYRSCDAKYIVTWISSEEEFVKWCANLITYPFTEESMNKIQESFENNEKGWLFTAIDKKGTPIGFMSMSKADYENDSVHLGFIIVDSSKRSSGFGKQMINQAIKYAFEILNVSRVTLKVFDNNSTAHYCYQNVGFVDEKYMEKEFPYKDEMWGCYCMAIQK | not soluble
MGSDKIHHHHHHMVSLFKIIQVGDHGEVPGAEVFWMKDFDKWYRLSFYSFLIKTENDQYVLINTGLPDDLSLRNKFLKEWAKSDRCKFQHVEKIENALAKLNITTDDISHIIITPVQDYTIGRIHMFRKAKLYFSKKGWYEDVVTPSPSPFLNRDIYLPRLTREYLFDEAWNRIVLVENQEVIKGIEVKWTGCHHRSSMLVKFNFDKKRWCISDSAFVMNNFEQNIPIGIAEDIYECLNAYDYMRRECDVVIPSYDPENVNRFKEYILK | not soluble
MGSDKIHHHHHHMVTYAGKLVLAPMVRAGELPTRLMALAHGADLVWSPEIIDKKLIQCVRKENTALQTVDYVVPSKVQTRPETLVFRTYPKLESSKLIFQIGSASPALATQAALKVINDVSGIDINAGCPKHFSIHSGMGSALLRTPDTLCLILKELVKNVGNPHSKPISVKIRLLDTKQDTLQLVKRLCATGITNLTVHCRKTEMRNREQPITDYIAEIYEICQANNVSLIVNGAIRDRSHFHDLQANHWKNTNIGGMIAECAERDPTVFDHTSKPSEDGPSWVVACREFIQWATKFDNHIGNTKYMLSRIVPGKSVFFQYFARCKSPEEVSFVLKQLNDDGSAQTDPSEYLENCRAQEKALKNANAIAKQKRKQTDHIGSDTKKQKVVPLPTDI | not soluble
MGSDKIHHHHHHMWEIDQVRQGIVKNQIPSVNLWYGEERFFIQEALQLLKNSYLAQDPSGSGIEILSGKSTGPEQIVEIANTVSFFGGKLIIVEDIPYFQDGQGDALEPFFAYFENPNPGTCLVFLAQSVNRGRKFFKAIEKKGSILEFVSPKRQQEWSAWLDRELAARGKTMKPQVKALFLEWGGHQVGALSQELDKLALFVEGKEIRTEDVRSLVPQAVEATVFELLDAVAARSSKEAVQKLQQVLRQEHSLKVLTLLSRQVRLLLGARAMRQQGRGAEEAPRLLGIKPYEAQKIWQKAAQLTWEQLSWALRECLETDVAIKTGKGEPEFLLELMVVKFCEM | not soluble
MGSDKIHHHHHHMWITINRNSNISLSRQIYCEIKDMILDGSLKFEQKLPSSRTLSKELSVSRNTVLDAYNQLIAEGYLETRNGYGTIVAKGISGHKVDFKLNDTFRDEKDLHTNKQKNYIDFRSGVPELKLFPRKELSKLYKQILYDLSDSDFRYGSTAGVWVLRVEISKYLFRTRGIRCNPKNIMIVSGSTQGLSLISQLLYKSNKKVAVEDPIHKGLLKVISSIGYSVVGIKVDDKGMNTNLIKSIKGISFVYTTPSHQYPLGGILPIQRRLELIKCATENDYYIIEDDYDSEFRYEGQPISSLYELSPNKVIYIGSFSKILSPAIRVGFMLLPDNILESYKTLKMYSDVHTETILQHVLAEFIGNGGLEKYIFRMKKLYNRKRKYLIKVLNTEFKNEFKIKGEAAGLHIVAHFYNVKFTESLIHKIFEAGIKVYPIQQYAIENILEYDHEIILGYAHLSFDEIEKGVKILSKIIHMNQGT | not soluble
MGSDKIHHHHHHMWLSSEFNRMAEKTFKAYEPDDAFFSTLLYGPEGVGKSTLLVKCCQRLKEKKTILYIDAQDFVKNYAFAAQEGTLSQFRLRLRTPGVLIMDHIEVLKGKTRSIEEFYHTYEALFQRNGRIICGFRGDPSQLGFLGEKLSSRLRGGLVVPILQPTPEDMLNYLRQMAYGKFLIVEDLVLELMAEEAANFPEAQSLMNGFIQFANRTDSALDHDALLLYLQERRYQEGLRPSPQNIIQKVAELTGVAAAAIYSTTRTPEVRQARQLAIYGIRSLSRLSYPEIGASLNKSHSSIMKSYQQFQEAVQKNPELREMLESLVKYFNSPDDEKTER | not soluble
MGSDKIHHHHHHMWTILCDKDSGGVLLRKGVSTSIIRSNPDLLEALPKAELYELGFFKAEDLEKVLRFFHDKNFGIHAPFIYRYRYHHPNPTSLNEEEREDTFSVNKKCAELARKIGAEYMIIHFPNALQKENWLSVYREVEREFSELAGVISVRVENVYGNDHFHSAEDYRTFLENTGCKMCVDIGHLLLDAEVYGFSPIEFIEKLSDFVEEFHIYYADFETYKKCHHAPWGESKEFLEVLEFIKDFDADFVLEPTPECEEGLEKLFEYWRDL | not soluble
MGSDKIHHHHHHMYETFEKLPDGKKEQIIQVCIEEFIENGYQNASTNTIVKRLGISKGVLFLYFKNKKNLYLYLVEYIMEFFIQDYFEEYAGGPVININVFDNLGEYYKELMQKKPELFLFMLQAFVNTPAELKEEIDARHNQAHDSLFRHMNNEGFRPGIDIHLVDDLLHMVSYYVGQLITNDLKGKDLNTIIKDEINKNIVRYAELFAKYVDILKYGVYER | not soluble
